The experiment addresses T1, CXCR4 (Homo sapiens, UniProt P61073).
T1 construct: purchased Millipore
Nature of the experiment: CXCR4 internalization assay in HeLa cells. It is filed as cell-based. The settings on record: 80 ng/ml, 20 min, FACS surface expression. As for the experimental part:
CXCR4 internalization assay. HeLa cells grown on 6-cm dishes were washed twice with PBS and detached from the surface of the plate by incubating with 350 μl Cellstripper cell dissociation solution (Mediatech, Va.) for 10 min at 37° C. Cells were collected in 4 ml PBS containing 0.1% BSA (Media Tech, Va.) by centrifugation. Cell pellets were re-suspended in 1.5 ml PBS-0.1% BSA and 5×10^5 cells were transferred to a fresh 5 ml polystyrene round bottom tube (BD falcon) and washed once with PBS+0.1% BSA and re-suspended in 250 μl PBS-0.1% BSA. […] Following treatment, 4 mL cold PBS was added to each tube, cells were collected by centrifugation and then fixed by re-suspending the pellet in 500 μl 4% paraformaldehyde (made in PBS) and incubating for 15 min at 37° C. Cells were collected by centrifugation and washed once with 4 mL PBS and then twice with PBS-0.1% BSA. […] CXCR4 surface expression was analyzed by flow cytometry (FACS-CANTO; Becton Dickinson) and analysis was performed using FlowJo v.9.3 software.
CXCR4 internalization assay. […] CXCR4 surface expression was analyzed by flow cytometry (FACS-CANTO; Becton Dickinson) and analysis was performed using FlowJo v.9.3 software.

T1 sequence (P61073 whole entry): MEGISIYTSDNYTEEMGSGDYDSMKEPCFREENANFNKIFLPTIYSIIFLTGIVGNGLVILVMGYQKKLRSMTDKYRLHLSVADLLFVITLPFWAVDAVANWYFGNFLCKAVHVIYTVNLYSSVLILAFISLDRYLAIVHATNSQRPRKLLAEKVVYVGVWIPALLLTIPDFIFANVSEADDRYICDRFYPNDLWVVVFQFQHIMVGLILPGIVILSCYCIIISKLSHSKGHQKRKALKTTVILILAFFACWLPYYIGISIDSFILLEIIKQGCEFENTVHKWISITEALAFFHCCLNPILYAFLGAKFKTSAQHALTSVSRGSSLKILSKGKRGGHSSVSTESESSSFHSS

Take “CXCL122: constitutively dimeric variant of CXCL12 containing L36C/A65C mutations”: the CXCR4 internalization result is reported as “nominal internalization”.

Source of the values: US11369662B2 (The Medical College of Wisconsin, Inc., priority 2014, dated 2022).
